Columns and labels:
Assay in all cases: anti-Flag pull-down from MFF1-transfected PC3 cells, LC-MS/MS; intensity over control, mean of two experiments
OPA1 (human) = OPA1 (human) (UniProt O60313)
HSPA8 (human) = HSPA8 (human) (UniProt P11142)
SLC25A13 (human) = SLC25A13 (human) (UniProt Q9UJS0)
DDOST (human) = DDOST (human) (UniProt P39656)
TFRC (human) = TFRC (human) (UniProt P02786)
COPA (human) = COPA (human) (UniProt P53621)
RPN1 (human) = RPN1 (human) (UniProt P04843)
DDB1 (human) = DDB1 (human) (UniProt Q16531)
COPB1 (human) = COPB1 (human) (UniProt P53618)
RPN2 (human) = RPN2 (human) (UniProt P04844)
Sequence of RPN2 (human) (P04844 23-631 limits assumed): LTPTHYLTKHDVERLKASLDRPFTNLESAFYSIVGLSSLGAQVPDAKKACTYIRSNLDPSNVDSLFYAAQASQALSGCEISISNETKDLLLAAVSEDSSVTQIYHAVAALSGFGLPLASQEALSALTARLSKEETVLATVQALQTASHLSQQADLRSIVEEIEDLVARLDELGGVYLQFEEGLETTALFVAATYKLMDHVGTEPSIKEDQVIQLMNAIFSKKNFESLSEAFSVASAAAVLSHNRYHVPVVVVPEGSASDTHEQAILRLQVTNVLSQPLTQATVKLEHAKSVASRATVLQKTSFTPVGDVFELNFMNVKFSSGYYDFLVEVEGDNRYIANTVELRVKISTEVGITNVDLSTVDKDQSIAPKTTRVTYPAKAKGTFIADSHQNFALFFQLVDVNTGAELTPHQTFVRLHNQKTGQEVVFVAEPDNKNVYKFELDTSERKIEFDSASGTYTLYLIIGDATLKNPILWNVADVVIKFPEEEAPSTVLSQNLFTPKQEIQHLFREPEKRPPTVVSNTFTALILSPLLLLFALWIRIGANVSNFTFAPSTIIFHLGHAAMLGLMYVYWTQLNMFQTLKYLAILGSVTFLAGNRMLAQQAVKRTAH

Sequence of RPN1 (human) (P04843 24-607 limits assumed): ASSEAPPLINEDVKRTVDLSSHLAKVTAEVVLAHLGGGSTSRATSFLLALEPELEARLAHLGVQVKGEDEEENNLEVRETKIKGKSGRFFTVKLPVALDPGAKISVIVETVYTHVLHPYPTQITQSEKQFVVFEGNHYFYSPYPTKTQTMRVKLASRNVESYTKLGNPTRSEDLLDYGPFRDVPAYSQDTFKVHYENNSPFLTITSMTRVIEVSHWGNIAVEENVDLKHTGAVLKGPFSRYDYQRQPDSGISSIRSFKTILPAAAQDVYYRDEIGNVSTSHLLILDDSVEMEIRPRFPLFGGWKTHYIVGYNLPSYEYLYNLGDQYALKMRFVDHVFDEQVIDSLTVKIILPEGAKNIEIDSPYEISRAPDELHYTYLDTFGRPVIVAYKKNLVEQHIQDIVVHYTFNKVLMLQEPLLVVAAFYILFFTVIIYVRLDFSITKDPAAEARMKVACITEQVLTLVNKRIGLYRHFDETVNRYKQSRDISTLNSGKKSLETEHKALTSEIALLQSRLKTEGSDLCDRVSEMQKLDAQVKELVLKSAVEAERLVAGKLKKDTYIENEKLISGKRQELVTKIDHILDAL
Sequence of TFRC (human) (P02786 whole entry): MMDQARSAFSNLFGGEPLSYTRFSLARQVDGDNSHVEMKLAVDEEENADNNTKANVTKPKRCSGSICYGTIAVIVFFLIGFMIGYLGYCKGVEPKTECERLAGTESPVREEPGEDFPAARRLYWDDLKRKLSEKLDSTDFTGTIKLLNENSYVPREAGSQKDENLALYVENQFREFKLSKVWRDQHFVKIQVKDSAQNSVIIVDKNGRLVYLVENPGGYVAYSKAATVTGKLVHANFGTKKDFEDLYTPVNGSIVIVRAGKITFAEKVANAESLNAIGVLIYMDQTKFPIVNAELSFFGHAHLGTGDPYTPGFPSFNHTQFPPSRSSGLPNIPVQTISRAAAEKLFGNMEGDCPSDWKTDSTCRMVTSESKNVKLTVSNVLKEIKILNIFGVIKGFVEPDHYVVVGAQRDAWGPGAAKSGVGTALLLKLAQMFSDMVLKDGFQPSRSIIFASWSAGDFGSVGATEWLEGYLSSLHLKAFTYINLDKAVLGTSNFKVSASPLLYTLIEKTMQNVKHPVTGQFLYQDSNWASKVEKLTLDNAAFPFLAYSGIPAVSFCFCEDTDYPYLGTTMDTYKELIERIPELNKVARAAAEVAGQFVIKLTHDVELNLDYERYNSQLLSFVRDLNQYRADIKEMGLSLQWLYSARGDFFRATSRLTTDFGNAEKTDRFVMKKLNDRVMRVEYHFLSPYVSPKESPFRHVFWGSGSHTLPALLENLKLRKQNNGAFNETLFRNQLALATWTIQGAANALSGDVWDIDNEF
Sequence of DDOST (human) (P39656 43-456 limits assumed): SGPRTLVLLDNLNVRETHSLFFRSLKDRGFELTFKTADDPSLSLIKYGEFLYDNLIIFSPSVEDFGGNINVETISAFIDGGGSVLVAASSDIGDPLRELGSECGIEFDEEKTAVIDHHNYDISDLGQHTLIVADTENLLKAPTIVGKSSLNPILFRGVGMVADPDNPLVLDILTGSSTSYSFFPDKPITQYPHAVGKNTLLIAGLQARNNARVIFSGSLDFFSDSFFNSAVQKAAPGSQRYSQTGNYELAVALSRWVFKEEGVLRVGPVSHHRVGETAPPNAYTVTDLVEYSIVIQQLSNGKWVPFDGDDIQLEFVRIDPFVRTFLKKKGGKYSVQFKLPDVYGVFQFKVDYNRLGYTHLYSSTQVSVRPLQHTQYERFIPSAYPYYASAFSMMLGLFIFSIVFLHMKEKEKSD
Sequence of SLC25A13 (human) (Q9UJS0 2-675 limits assumed): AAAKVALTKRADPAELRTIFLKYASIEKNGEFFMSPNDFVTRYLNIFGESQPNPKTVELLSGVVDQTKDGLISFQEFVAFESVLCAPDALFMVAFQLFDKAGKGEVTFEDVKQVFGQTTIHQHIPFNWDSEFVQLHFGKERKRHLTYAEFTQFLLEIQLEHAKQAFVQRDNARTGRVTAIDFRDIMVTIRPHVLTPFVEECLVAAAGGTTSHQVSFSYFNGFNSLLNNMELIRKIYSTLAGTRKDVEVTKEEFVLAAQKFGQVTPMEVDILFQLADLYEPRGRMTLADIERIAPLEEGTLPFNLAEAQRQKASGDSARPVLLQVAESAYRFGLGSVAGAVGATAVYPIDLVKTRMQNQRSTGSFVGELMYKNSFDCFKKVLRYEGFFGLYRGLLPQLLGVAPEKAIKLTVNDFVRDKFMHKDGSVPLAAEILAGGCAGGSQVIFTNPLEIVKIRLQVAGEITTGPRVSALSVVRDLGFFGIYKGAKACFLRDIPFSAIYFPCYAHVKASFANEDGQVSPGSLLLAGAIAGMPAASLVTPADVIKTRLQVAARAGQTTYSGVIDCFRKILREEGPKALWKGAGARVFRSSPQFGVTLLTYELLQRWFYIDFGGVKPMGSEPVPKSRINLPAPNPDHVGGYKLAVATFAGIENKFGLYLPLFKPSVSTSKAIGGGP
Sequence of OPA1 (human) (O60313 88-960 limits assumed): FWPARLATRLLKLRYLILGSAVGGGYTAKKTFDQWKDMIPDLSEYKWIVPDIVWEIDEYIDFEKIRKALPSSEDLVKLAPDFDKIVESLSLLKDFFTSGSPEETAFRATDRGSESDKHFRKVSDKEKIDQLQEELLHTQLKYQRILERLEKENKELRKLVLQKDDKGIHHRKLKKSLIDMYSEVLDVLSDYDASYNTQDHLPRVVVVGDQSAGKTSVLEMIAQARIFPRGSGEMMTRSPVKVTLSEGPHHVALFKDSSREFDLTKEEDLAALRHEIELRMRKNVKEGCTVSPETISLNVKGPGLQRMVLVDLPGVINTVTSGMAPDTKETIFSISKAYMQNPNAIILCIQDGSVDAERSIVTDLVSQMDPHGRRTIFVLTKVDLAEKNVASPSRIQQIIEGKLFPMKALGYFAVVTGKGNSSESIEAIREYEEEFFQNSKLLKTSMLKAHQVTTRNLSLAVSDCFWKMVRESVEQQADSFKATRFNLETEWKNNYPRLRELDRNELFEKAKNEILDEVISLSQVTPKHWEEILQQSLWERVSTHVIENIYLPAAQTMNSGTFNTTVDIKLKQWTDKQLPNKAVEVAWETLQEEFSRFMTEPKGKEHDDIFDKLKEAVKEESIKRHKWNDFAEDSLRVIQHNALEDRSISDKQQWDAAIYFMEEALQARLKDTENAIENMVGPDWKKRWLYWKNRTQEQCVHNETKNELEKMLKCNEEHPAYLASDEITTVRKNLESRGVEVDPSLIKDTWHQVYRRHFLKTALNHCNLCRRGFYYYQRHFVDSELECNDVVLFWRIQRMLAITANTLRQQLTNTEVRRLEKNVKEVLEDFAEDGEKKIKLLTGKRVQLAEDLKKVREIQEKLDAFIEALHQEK
Sequence of HSPA8 (human) (P11142 2-646 limits assumed): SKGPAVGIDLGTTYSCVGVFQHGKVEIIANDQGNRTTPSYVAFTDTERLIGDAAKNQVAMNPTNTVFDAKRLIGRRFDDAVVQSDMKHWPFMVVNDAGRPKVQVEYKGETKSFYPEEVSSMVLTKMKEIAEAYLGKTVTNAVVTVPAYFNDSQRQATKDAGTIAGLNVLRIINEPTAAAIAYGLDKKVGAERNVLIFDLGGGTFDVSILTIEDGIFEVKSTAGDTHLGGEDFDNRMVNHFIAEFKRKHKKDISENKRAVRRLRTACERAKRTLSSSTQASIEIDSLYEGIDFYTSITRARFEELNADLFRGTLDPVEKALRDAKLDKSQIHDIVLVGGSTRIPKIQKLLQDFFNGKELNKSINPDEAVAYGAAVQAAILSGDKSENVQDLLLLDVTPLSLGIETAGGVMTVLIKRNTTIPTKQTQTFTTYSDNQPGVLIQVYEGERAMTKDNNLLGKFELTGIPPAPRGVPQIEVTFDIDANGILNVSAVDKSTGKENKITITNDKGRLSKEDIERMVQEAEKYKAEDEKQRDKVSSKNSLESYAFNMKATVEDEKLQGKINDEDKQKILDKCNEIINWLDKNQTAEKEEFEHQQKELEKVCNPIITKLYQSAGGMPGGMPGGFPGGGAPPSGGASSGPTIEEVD

mean fold (OPA1 (human)): 25.2 fold
mean fold (HSPA8 (human)): 21.4 fold
mean fold (SLC25A13 (human)): 15.1 fold
mean fold (DDOST (human)): 17.1 fold
mean fold (TFRC (human)): 25.3 fold
mean fold (COPA (human)): 19.3 fold
mean fold (RPN1 (human)): 10.8 fold
mean fold (DDB1 (human)): 32.3 fold
mean fold (COPB1 (human)): 18.5 fold
mean fold (RPN2 (human)): 12.1 fold
Substance: Flag-MFF1 (from UniProt Q9GZY8 1-342)
